Reference: the supplement of paper PMC7877785
± gives the uncertainty stated by the source.

Assay: self-splicing fitness, log relative to wild type (ln ratio); higher = more splicing; Tetrahymena group I intron in knt gene, E. coli kanamycin selection, DiMSum; sequences stand for … in CUCUCU…GGAGGGAAAAGUUAUCAGGCAUGCACCUGGUAGCUAGUCUUUAAACCAAUAGAUUGCAUCGGUUUAAAAGGCAAGACCGUCAAAUUGCGGGAAAGGGGUCAACAGCCGUUCAGUACCAAGUCUCAGGGGAAACUUUGAGAUGGCCUUGCAAAGGGUAUGGUAAUAAGCUGACGGACAUGGUCCUAACCACGCAGCCAAGUCCUAAGUCAACAGAUCUUCUGUUGAUAUGGAUGCAGUUCACAGACUAAAUGUCGGUCGGGGAAGAUGUAUUCUUCUCAUAAGAUAUAGUCGGACCUCUCCUUAAUGGGAGCUAGCGGAUGAAGUGAUGCAACACUGGAGCCGCUGGGAACUAAUUUGUAUGCGAAAGUAUAUUGAUUAGUUUUGGAGUACUCGUGGUCG
In short: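 Fitness was computed with DiMSum as the error-weighted combination of replicate fold changes, kanamycin versus none, each normalised to wild type. The library randomised all eight intron nucleotides of the P1ex region, with the intron placed in the knt kanamycin-resistance gene on pET-22b(+) in E. coli BL21(DE3). Six replicate transformations were grown overnight at 37°C or 30°C on LB agar with or without 25 μg/mL kanamycin, plus 100 μg/mL carbenicillin, 50 μM IPTG and 0.2% rhamnose. Pooled colonies were amplicon-sequenced on an Illumina HiSeq 2500.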

| Sequence | self-splicing fitness (ln) (30 °C) | self-splicing fitness (ln) (37 °C) |
| --- | --- | --- |
| UUUAAGCAAUAUUACGCAAU | -2.5 ± 0.24 | -1.55 ± 0.23 |
| UUUAAGCAAUAUUACGCACC | -2.05 ± 0.21 | -0.66 ± 0.22 |
| UUUAAGCAAUAUUACGCAUG | -1.07 ± 0.089 | -0.408 ± 0.099 |
| UUUAAGCAAUAUUACGCGUC | -1.9 ± 0.18 | -1.77 ± 0.25 |
| UUUAAGCAAUAUUACGCUCC | -2.1 ± 0.22 | -0.172 ± 0.29 |
| UUUAAGCAAUAUUACGCUUA |  | -3.03 ± 0.33 |
| UUUAAGCAAUAUUACGGAAG | -2.97 ± 0.26 | -1.37 ± 0.3 |
| UUUAAGCAAUAUUACGGAGC | -1.94 ± 0.25 | -1.43 ± 0.47 |
| UUUAAGCAAUAUUACGGAUC | -1.33 ± 0.43 |  |
| UUUAAGCAAUAUUACGGUGC | -3.88 ± 0.46 | -2.01 ± 0.47 |
| UUUAAGCAAUAUUACGUAUG | -1.44 ± 0.13 | -0.482 ± 0.16 |
| UUUAAGCAAUAUUACGUCGG | -0.492 ± 0.079 | -0.762 ± 0.089 |
| UUUAAGCAAUAUUACGUGUC | -3.99 ± 0.33 | -2.65 ± 0.25 |
| UUUCAGCAAUAUUACGAGGC | -2.12 ± 0.22 |  |
| UUUCAGCAAUAUUACGAGGG | -3.94 ± 0.25 | -1.02 ± 0.13 |
| UUUCAGCAAUAUUACGCAGA | -1.32 ± 0.27 | -1.6 ± 0.24 |
| UUUCAGCAAUAUUACGCAGG | -2.53 ± 0.18 | -1.65 ± 0.23 |
| UUUCAGCAAUAUUACGCAUA | -2.13 ± 0.21 | -0.691 ± 0.17 |
| UUUCAGCAAUAUUACGCCCC | -1.57 ± 0.3 |  |
| UUUCAGCAAUAUUACGCUGA | -3.32 ± 0.47 | -2.24 ± 0.42 |
| UUUCAGCAAUAUUACGCUUC | -0.771 ± 0.21 | -2.33 ± 0.38 |
| UUUCAGCAAUAUUACGUCAG | -0.968 ± 0.089 | -0.726 ± 0.12 |
| UUUCAGCAAUAUUACGUCGA | -1.11 ± 0.11 | -1.25 ± 0.12 |
| UUUCAGCAAUAUUACGUGCC | -3.44 ± 0.25 | -1.57 ± 0.23 |
| UUUCAGCAAUAUUACGUGUA | -2.47 ± 0.12 | -1.57 ± 0.1 |
| UUUCAGCAAUAUUACGUUCU |  | -1.89 ± 0.21 |

| Sequence | self-splicing fitness (ln) (30 °C) | self-splicing fitness (ln) (37 °C) |
| --- | --- | --- |
| UUUCAGCAAUAUUACGUUGA |  | -1.85 ± 0.34 |
| UUUCAGCAAUAUUACGUUGU | -3.23 ± 0.21 | -2.06 ± 0.15 |
| UUUCAGCAAUAUUACGUUUU | -3.86 ± 0.23 | -1.13 ± 0.14 |
| UUUGAGCAAUAUUACGAGCG |  | -1.88 ± 0.35 |
| UUUGAGCAAUAUUACGCAAA | -2.8 ± 0.25 | -2.25 ± 0.21 |
| UUUGAGCAAUAUUACGCCAA |  | -1.56 ± 0.27 |
| UUUGAGCAAUAUUACGCCGA | -2.3 ± 0.42 | -1.61 ± 0.41 |
| UUUGAGCAAUAUUACGCCUC |  | -0.879 ± 0.39 |
| UUUGAGCAAUAUUACGCGAC | -2.15 ± 0.35 |  |
| UUUGAGCAAUAUUACGGACU | -4.55 ± 0.34 | -2.99 ± 0.23 |
| UUUGAGCAAUAUUACGGCCU | -3.9 ± 0.4 | 0.167 ± 0.26 |
| UUUGAGCAAUAUUACGGCGC | -2.21 ± 0.35 |  |
| UUUGAGCAAUAUUACGGGGU |  | -2.11 ± 0.26 |
| UUUGAGCAAUAUUACGGUCA | -1.47 ± 0.28 | -3.07 ± 0.4 |
| UUUGAGCAAUAUUACGGUCG | -3.78 ± 0.21 | -1.73 ± 0.19 |
| UUUGAGCAAUAUUACGUCGG | -3.06 ± 0.21 | -1.28 ± 0.18 |
| UUUGAGCAAUAUUACGUCUU | -3.77 ± 0.32 | -3.16 ± 0.43 |
| UUUGAGCAAUAUUACGUUGG | -3.37 ± 0.28 | -2.26 ± 0.26 |
| UUUGAGCAAUAUUACGUUUU | -3.55 ± 0.19 | -2.65 ± 0.17 |
| UUUUAGCAAUAUUACGACCA | -0.399 ± 0.34 | -0.577 ± 0.37 |
| UUUUAGCAAUAUUACGACCG | 1.81 ± 0.28 | -1.19 ± 0.4 |
| UUUUAGCAAUAUUACGAGUG | -1.75 ± 0.13 | -1.26 ± 0.13 |
| UUUUAGCAAUAUUACGAGUU |  | -0.193 ± 0.24 |
| UUUUAGCAAUAUUACGAUAG | -0.792 ± 0.26 | -0.639 ± 0.46 |
| UUUUAGCAAUAUUACGAUCU | -0.719 ± 0.13 | -0.72 ± 0.15 |
| UUUUAGCAAUAUUACGCACU | -0.447 ± 0.12 | -0.218 ± 0.15 |
